Test results as given in CN114805579A (UNIV ZHENGZHOU, dated 2022).

Assays:
人ACE2 (293T-hACE2细胞表面) = 人ACE2 (293T-hACE2细胞表面) (human, UniProt Q9BYF1 18-805); assay: cell-based or functional assay
[1] = target: hACE2-ecto重组蛋白 (人ACE2胞外区, C端6×His标签) (human, UniProt Q9BYF1 18-740)
Sequence of hACE2-ecto重组蛋白 (人ACE2胞外区, C端6×His标签) (Q9BYF1 other isoform, or with tags, fused parts or gaps): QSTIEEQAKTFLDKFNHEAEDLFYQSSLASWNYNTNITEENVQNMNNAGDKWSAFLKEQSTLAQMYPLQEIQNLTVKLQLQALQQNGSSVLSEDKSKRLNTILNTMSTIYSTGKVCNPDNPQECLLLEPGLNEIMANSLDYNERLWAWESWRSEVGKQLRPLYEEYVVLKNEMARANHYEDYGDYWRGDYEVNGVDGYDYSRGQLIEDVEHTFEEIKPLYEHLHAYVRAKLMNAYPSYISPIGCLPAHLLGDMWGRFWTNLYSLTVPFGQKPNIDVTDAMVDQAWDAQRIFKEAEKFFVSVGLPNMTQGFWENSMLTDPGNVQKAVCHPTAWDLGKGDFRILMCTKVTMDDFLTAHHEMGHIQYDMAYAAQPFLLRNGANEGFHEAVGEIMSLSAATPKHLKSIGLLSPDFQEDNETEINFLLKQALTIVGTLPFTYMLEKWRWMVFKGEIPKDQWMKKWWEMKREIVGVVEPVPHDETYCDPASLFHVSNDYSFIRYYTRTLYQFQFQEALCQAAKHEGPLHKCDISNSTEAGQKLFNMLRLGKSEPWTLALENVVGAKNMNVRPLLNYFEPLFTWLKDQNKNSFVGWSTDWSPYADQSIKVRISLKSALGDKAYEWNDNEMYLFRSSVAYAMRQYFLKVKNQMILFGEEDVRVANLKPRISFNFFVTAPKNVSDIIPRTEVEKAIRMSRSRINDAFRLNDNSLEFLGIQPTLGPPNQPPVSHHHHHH

Sequence of 人ACE2 (293T-hACE2细胞表面) (Q9BYF1 18-805): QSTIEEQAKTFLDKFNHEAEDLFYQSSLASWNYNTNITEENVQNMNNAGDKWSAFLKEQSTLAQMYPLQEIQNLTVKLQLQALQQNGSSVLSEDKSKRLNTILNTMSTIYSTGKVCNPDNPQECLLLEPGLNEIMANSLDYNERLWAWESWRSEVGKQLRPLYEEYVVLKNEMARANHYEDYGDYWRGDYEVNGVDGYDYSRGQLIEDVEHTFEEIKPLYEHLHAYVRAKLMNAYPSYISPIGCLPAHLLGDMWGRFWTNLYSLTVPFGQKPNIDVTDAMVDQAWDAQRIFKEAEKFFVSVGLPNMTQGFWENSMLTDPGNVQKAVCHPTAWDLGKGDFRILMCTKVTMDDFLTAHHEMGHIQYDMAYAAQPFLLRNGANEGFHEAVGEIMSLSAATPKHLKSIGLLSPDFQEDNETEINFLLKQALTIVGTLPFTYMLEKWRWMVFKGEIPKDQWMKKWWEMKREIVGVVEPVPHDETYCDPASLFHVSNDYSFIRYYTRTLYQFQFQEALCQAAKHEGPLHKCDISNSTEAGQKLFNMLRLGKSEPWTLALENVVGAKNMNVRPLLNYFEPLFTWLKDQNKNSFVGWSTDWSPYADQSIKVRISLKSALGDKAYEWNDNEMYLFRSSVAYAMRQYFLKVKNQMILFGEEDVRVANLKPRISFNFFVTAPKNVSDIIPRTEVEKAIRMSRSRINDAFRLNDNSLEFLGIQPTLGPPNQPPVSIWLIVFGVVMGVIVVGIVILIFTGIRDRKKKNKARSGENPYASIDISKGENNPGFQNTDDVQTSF

B1: 抗人ACE2蛋白单克隆抗体2D6 (antibody, V domains shown)
VH: EVKLVESGGGLVQPGGSLRLSCATSGFTFTDYYMSWVRQPPGKALEWLGFIRNRPNDYTTEYSASVKGRFTISRDNSQSILYLQMNTLRAEDSATYYCARDRGLRQAMDYWGQGTSVTVSS
VL: QIVLTQSPAIMSASPGEKVTMTCTASSSVTYMHWYQQKSGTSPKRWIYDTSKLASGVPGRFSGSGSGTSYSLTISSMEAEDAATYFCQQWSFNPLTFGSGTKLEIK
- 假病毒阻断试验 IC50, SARS-CoV-2 Delta(B.1.617.2)假病毒感染293T-hACE2细胞 (荧光素酶活性) (人ACE2 (293T-hACE2细胞表面)): 0.346 µg/mL
- 假病毒阻断试验 IC50, SARS-CoV-2 Omicron(B.1.1.529)假病毒感染293T-hACE2细胞 (荧光素酶活性) (人ACE2 (293T-hACE2细胞表面)): 0.139 µg/mL
- 假病毒阻断试验 IC50, SARS-CoV-2野生型(Wuhan-1)假病毒感染293T-hACE2细胞 (荧光素酶活性) (人ACE2 (293T-hACE2细胞表面)): 0.164 µg/mL
- EC50 [1]: 0.00841 µg/mL
